Experimental data: article PMC10557622 (bioRxiv, 2023)
One block for each binder: values may come before it.

Assays:
CENP-A/H4 = CENP-A/H4 (UniProt P49450;P62805); test: BLI
[1] = target: 6xHis-MBP-CENP-C 1-600-SpyCatcher (UniProt Q03188 1-600); test: BLI
Chain of 6xHis-MBP-CENP-C 1-600-SpyCatcher (Q03188 1-600): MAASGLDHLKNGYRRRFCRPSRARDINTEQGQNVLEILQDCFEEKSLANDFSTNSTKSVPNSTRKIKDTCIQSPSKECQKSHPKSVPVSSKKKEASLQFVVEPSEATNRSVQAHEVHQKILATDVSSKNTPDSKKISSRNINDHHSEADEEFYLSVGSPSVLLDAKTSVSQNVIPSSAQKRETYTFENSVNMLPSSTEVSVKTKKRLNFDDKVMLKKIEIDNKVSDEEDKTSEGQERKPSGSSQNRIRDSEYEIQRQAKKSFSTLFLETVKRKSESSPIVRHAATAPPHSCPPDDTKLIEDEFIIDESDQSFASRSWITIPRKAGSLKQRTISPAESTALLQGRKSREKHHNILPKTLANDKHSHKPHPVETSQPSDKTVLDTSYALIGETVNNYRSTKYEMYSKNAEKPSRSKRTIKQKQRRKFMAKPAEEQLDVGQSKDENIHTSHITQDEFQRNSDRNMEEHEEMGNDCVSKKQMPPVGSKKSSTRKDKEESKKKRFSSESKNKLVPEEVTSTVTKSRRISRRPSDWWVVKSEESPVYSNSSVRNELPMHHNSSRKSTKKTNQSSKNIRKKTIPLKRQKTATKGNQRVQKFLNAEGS

Kd (CENP-A/H4): 290 nM
B1: purified BANF1 (natural protein)
chain: MTTSQKHRDFVAEPMGEKPVGSLAGIGEVLGKKLEERGFDKAYVVLGQFLVLKKDEDLFREWLKDTCGANAKQSRDCFGCLREWCDAFL

Kd [1]: 404 nM
Kd (CENP-A/H4): 137 nM
B2: recombinant Human EMD protein with N-terminal His-tag (natural protein)
chain: MDNYADLSDTELTTLLRRYNIPHGPVVGSTRRLYEKKIFEYETQRRRLSPPSSSAASSYSFSDLNSTRGDADMYDLPKKEDALLYQSKGYNDDYYEESYFTTRTYGEPESAGPSRAVRQSVTSFPDADAFHHQVHDDDLLSSSEEECKDRERPMYGRDSAYQSITHYRPVSASRSSLDLSYYPTSSSTSFMSSSSSSSSWLTRRAIRPENRAPGAGLGQDRQVPLWGQLLLFLVFVIVLFFIYHFMQAEEGNPF
